Data on 116 sequences can be found in the supplement of paper PMC10724198.

± gives the standard deviation of the averaged measurements.
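Further: PSI is a weighted mean of sequencing reads over stability bins, variants kept only with over 10 reads, mCherry proximal and sfGFP distal, peptide attached via GGGS linker.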

This data set concerns Saccharomyces cerevisiae. As to the kind of experiment: protein stability index of tFT-peptide fusion (C-terminal peptide) (PSI (0-1 scale)); higher = more stable (slower turnover). The following applies: genetic background: wild type; temperature: 30 C.
KEKYEQIDIGKN yielded a protein stability index of 0.719 ± 0.066.

KELESKLISKKR had a protein stability index of 0.75 ± 0.068.

Turning to KEREGSRKETKH, the protein stability index is 0.694 ± 0.01.

On to KEYRTKNNKGRK, for which the protein stability index amounted to 0.654 ± 0.11.

Regarding KFHPRPPSRVLR, the protein stability index worked out at 0.6542 ± 0.0022.

For the sequence KFWRCVVVGYGL, the protein stability index came to 0.641 ± 0.099.

Regarding KGHMYEFRKGVR, the protein stability index was determined as 0.68 ± 0.011.

The sequence KGINALICTGSI returned a protein stability index of 0.6601 ± 0.0043.

Take KGKKRKKKRNFR: the protein stability index worked out at 0.68 ± 0.031.

Consider KGKRMSRLYSCG, for which the protein stability index was determined as 0.667 ± 0.012.

Sequence KGRGKRRGARAT gave a protein stability index of 0.73 ± 0.053.

The sequence KGRNYVGRIRNN registered a protein stability index of 0.509 ± 0.024.

Take KGVWLGGGCGLR: the protein stability index is 0.685 ± 0.025.

For the sequence KHKAQQGSHGPQ, the protein stability index was 0.616 ± 0.017.

KHTGFAGGMTWT registered a protein stability index of 0.707 ± 0.016.

In turn, KIANNEIEYARD returned a protein stability index of 0.598 ± 0.037.

KIERSKKKRRKG came in with a protein stability index of 0.66 ± 0.079.

As for KIIKIHLFWGII, the protein stability index is 0.478 ± 0.041.

KIIKIKKQGENK registered a protein stability index of 0.597 ± 0.016.

Regarding KIIQDCSSLSKK, the protein stability index turned out to be 0.683 ± 0.033.

With KIKKNKKKKRIN, the protein stability index worked out at 0.658 ± 0.026.

For KIKKTITKNTKR, the protein stability index was found to be 0.726 ± 0.0082.

Sequence KIKNNIKKKKNR yielded a protein stability index of 0.697 ± 0.024.

Turning to KILAVKIRRLYL, the protein stability index turned out to be 0.532 ± 0.018.

With KINRTKTAPITR, the protein stability index was found to be 0.724 ± 0.044.

KIRRKIRIYKRK: the protein stability index worked out at 0.629 ± 0.1.

Sequence KKCSNNPMTLRI returned a protein stability index of 0.655 ± 0.032.

On to KKEGEREQGVRW, for which the protein stability index is 0.703 ± 0.037.

KKEKKKTKKEKR showed a protein stability index of 0.696 ± 0.067.

In the case of KKEKKQRKKING, the protein stability index turned out to be 0.672 ± 0.075.

As for KKENKQEKKNMI, the protein stability index came out at 0.709 ± 0.016.

As to KKEQRKKRQQKT, the protein stability index amounted to 0.6958 ± 0.0066.

On to KKGRAEKKKRRK, for which the protein stability index was 0.65 ± 0.051.

In turn, KKICLEWMLLQS came in with a protein stability index of 0.7011 ± 0.0067.

KKIKKKRTEPQP registered a protein stability index of 0.694 ± 0.02.

As to KKIKKRNIKKKT, the protein stability index came out at 0.67 ± 0.032.

The sequence KKKANEMGKNRE had a protein stability index of 0.715 ± 0.028.

Consider KKKEKKRGRRKV, for which the protein stability index was found to be 0.688 ± 0.073.

With KKKIKKKKEKNT, the protein stability index amounted to 0.664 ± 0.032.

Take KKKIKKQKKKQI: the protein stability index came to 0.70912 ± 0.00033.

Consider KKKKIEEKKDCK, for which the protein stability index is 0.715 ± 0.023.

For KKKKKEKKQERK, the protein stability index was found to be 0.69526 ± 0.00024.

For KKKKKINRKKKK, the protein stability index turned out to be 0.705 ± 0.14.

Turning to KKKKKKKKKKKN, the protein stability index is 0.595 ± 0.034.

Consider KKKKKKTTPKTN, for which the protein stability index was 0.745 ± 0.038.

As for KKKKKKYRKKKK, the protein stability index was determined as 0.668 ± 0.0087.

Consider KKKKKQRGKKQK, for which the protein stability index was 0.722 ± 0.014.

For KKKKKQRMKRNG, the protein stability index was determined as 0.674 ± 0.049.

KKKKKRGKTKKK displayed a protein stability index of 0.734 ± 0.055.

KKKKKTKEINLK came in with a protein stability index of 0.6698 ± 0.00079.

On to KKKKKTNKDKGQ, for which the protein stability index stood at 0.66 ± 0.067.

In turn, KKKKMKKNKERK yielded a protein stability index of 0.708 ± 0.049.

KKKKNKKNKKQY: the protein stability index was determined as 0.676 ± 0.074.

In turn, KKKKQNKKKIKK returned a protein stability index of 0.68 ± 0.086.

As to KKKKYKKKRKIK, the protein stability index turned out to be 0.74 ± 0.015.

For KKKNKEQTKKTK, the protein stability index came out at 0.719 ± 0.024.

In the case of KKKNQGKKKIKK, the protein stability index was 0.699 ± 0.085.

KKKNTKKKNEQS displayed a protein stability index of 0.725 ± 0.014.

On to KKKQKKKKHEQK, for which the protein stability index was found to be 0.7 ± 0.034.

As to KKKQMREQPKNE, the protein stability index came to 0.7315 ± 0.0047.

In turn, KKKRDKKGKKKQ registered a protein stability index of 0.697 ± 0.012.

Sequence KKKSKKKNKKKE came in with a protein stability index of 0.766 ± 0.11.

KKKVEIKCRKRQ returned a protein stability index of 0.667 ± 0.0067.

In turn, KKLELLNRDRKV returned a protein stability index of 0.641 ± 0.042.

As for KKLKKTTNQTKK, the protein stability index was 0.616 ± 0.022.

In turn, KKLNKNKSKINR gave a protein stability index of 0.683 ± 0.01.

In turn, KKMMQNKKQTEI came in with a protein stability index of 0.727 ± 0.036.

Consider KKNEKGSKGAEY, for which the protein stability index was determined as 0.66 ± 0.03.

As for KKNKKKKKRARY, the protein stability index worked out at 0.707 ± 0.038.

As to KKNYKNIEKKET, the protein stability index is 0.658 ± 0.11.

KKQKKEKKKSHK displayed a protein stability index of 0.757 ± 0.068.

In turn, KKQLIPPKHHQR registered a protein stability index of 0.661 ± 0.022.

Take KKRKKKKIIQTK: the protein stability index stood at 0.65 ± 0.11.

Regarding KKRNKNKKTKEE, the protein stability index is 0.68 ± 0.0099.

KKRRPKINEIKE yielded a protein stability index of 0.643 ± 0.013.

On to KKRVHNRKEETE, for which the protein stability index was 0.691 ± 0.091.

Sequence KKTERRNKKKIR came in with a protein stability index of 0.695 ± 0.031.

With KKTKKKKQTKRK, the protein stability index was 0.677 ± 0.038.

Sequence KKVRTNTSKEIK returned a protein stability index of 0.692 ± 0.15.

KKWKKKNNKRNG: the protein stability index amounted to 0.707 ± 0.17.

With KLDDEVLFKRNI, the protein stability index was 0.692 ± 0.057.

KLKEDRRIGRNR returned a protein stability index of 0.668 ± 0.033.

With KLKTTEKTNPRE, the protein stability index is 0.805 ± 0.14.

KLQKTKNPKSNT yielded a protein stability index of 0.6624 ± 0.0046.

For KLTKGKIQLHIK, the protein stability index is 0.593 ± 0.017.

Turning to KMIDNKQKSVAV, the protein stability index was determined as 0.675 ± 0.012.

Take KMRKIRSKRLKW: the protein stability index was 0.681 ± 0.028.

Regarding KNDKHQTRKSTT, the protein stability index came to 0.703 ± 0.11.

The sequence KNKENLNINNKR yielded a protein stability index of 0.747 ± 0.0078.

The sequence KNKQQKKNKQKR registered a protein stability index of 0.643 ± 0.045.

KNKRKTNLRKKT showed a protein stability index of 0.6961 ± 0.00039.

Take KNMNQIKKKNRE: the protein stability index turned out to be 0.664 ± 0.061.

On to KNNERIDKRKKI, for which the protein stability index was found to be 0.726 ± 0.063.

For the sequence KNNKEKQKKKKR, the protein stability index is 0.663 ± 0.084.

Regarding KNNKNQKELDTK, the protein stability index came out at 0.677 ± 0.065.

For KNPSLSSPLPHP, the protein stability index was 0.6908 ± 0.0041.

Sequence KNSKNIRNKTNE registered a protein stability index of 0.711 ± 0.017.

For KNSTKHIKNEKN, the protein stability index worked out at 0.774 ± 0.044.

For the sequence KNTRLKKEKVSR, the protein stability index was found to be 0.829 ± 0.23.

KPCGRAEERRSG yielded a protein stability index of 0.674 ± 0.035.

KPLDPNRHVIPG registered a protein stability index of 0.652 ± 0.021.

Regarding KPLLSPPTIFPL, the protein stability index came out at 0.711 ± 0.032.

As for KPQQKQEKLTNP, the protein stability index is 0.736 ± 0.043.

In turn, KPYKTYKIIKRE returned a protein stability index of 0.6578 ± 0.0028.

Sequence KQFKFPLRVIRA came in with a protein stability index of 0.519 ± 0.024.

KQKKAETQATQK registered a protein stability index of 0.678 ± 0.038.

In turn, KQPGAGGGEVGG gave a protein stability index of 0.6555 ± 0.002.

In turn, KQRGSKVIIKVD showed a protein stability index of 0.663 ± 0.011.

For KQRGSNYGCGYG, the protein stability index is 0.615 ± 0.026.

For the sequence KQWGTHSSWLEV, the protein stability index was 0.701 ± 0.076.

Regarding KREEGKTKKKKQ, the protein stability index amounted to 0.666 ± 0.023.

KREKAQEGQGGD came in with a protein stability index of 0.709 ± 0.025.

Sequence KRESNSKQTEKV had a protein stability index of 0.7 ± 0.099.

Regarding KRGNEEYSRGNN, the protein stability index worked out at 0.692 ± 0.012.

Sequence KRGNGIEGRVGG displayed a protein stability index of 0.685 ± 0.011.

On to KRKKNISKTEKS, for which the protein stability index came out at 0.724 ± 0.016.
